In patent EP4659811A1 (Université de Strasbourg, dated 2025):
Changes are numbered by the printed parent chain.

B1: antibody G7P7 (antibody, V domains shown)
VH: QVQLQESGPGLVRPSQTLSLTCTVSGGSMTSGSYYWSWIRQPAEKGLEWIGRIYTSGRTDYNPSLKSRVAMSIDTSKNQFSLRLTSVTAADTAVYYCARWGDSSAYYYVGDPWGRGTPVTVSS
VL: DIQMTQSPSSLSASIGDRVTITCRASQNINTYLYWYQQKPGKAPQLLIYAASNLQTGAPSRFSGSGSGTDFTLTISSLQPADFATYYCQQSFSLPHTFGQGTKLEIK
B2: antibody C6P7 (antibody, V domains shown)
VH: B1 VH
VL: B1 VL with L104V
B3: antibody G8P6 (antibody, V domains shown)
VH: B1 VH with P118T
VL: B1 VL
B4: antibody G8P7 (antibody, V domains shown)
VH: QLQLQESGPGLVQPSETLSLTCTVSGGYISTSSYYWGWIRQPPGKGLEWIGSIEYSGSTYYNPSLKSRVTISVDTSKNQFSLKLSSVTAADTAVYYCASANSKYYDSGGYYAPGALDLWGQGTMVTVSS
VL: EIVMTQSPATLSVSPGERATLSCRASQSVSSHLAWYQHKRGQAPRLLIYAASSRATGIPARFSGRGSGTEFTLTISSLQSEDFAVYYCQQYNNWPPGYSFGQGTKLEIK
B5: antibody C11P1 (antibody, V domains shown)
VH: QVQLQESGPGLVKPSETLSLTCTVSGGSIRNSYWSWIRQPPGKGLEWIGYIYYTGTTNSNPSLKSRATISVHMSQNQISLKLNSVTPADTAVYYCAQGGGSGDLHYWGQGTLVTVSS
VL: NFMLTQPASVSGSPGQSITISCTGTRSDVGGYNYVSWYQQHPGKAPKLMIYDISSRPSGVSNRFSASKSGNTASLTISGLQAEDEADYYCISFATGYTWVFGGGTRLTVL
B6: antibody B2P8 (antibody, V domains shown)
VH: B5 VH with A67V
VL: EIVLTQSPDTLSLSPGARATLSCRASQSVRSNYLAWYQQKPGQAPRLLIYGASSRATAIPDRFSGSGSGTDFTLTITRLEPEDFAVYYCHQYASSPRTFGQGTKVEIK
B7: antibody G5P1 (antibody, V domains shown)
VH: B5 VH with E16G, A67V, Q75R
VL: B5 VL
B8: antibody E7P5 (antibody, V domains shown)
VH: B5 VH with P40S, T56S, A67L, I69V
VL: B5 VL with N1Q, F2S, M3A, M49I, R106S
B9: antibody E2P6 (antibody, V domains shown)
VH: EVQLVESGGGLIQPGGSLRLSCAASGFTVSTNCMSWVRQAPGTGLEWVSVIYSGGTTYYADSVKGRFTISRDNSRNTLYLQMNGLRAEDTAVYYCARSVDTYDIYALDVWGQGTTVTVSS
VL: DIQMTQSPSTLSASVGDRVTITCRASQSISRWLAWYQQKPGKAPKLLIYKASGLHSGAPSRFSGSGSGTEFTLTISGLQPDDFATYFCQQYNSYPWTFGQGTKVEIK
B10: antibody E5P6 (antibody, V domains shown)
VH: EVQLVESGGGVVQPGRSLRLSCAASGFIFNNHGMHWVRQAPGKGLEWVAGISYDGKKEYYIGSVKGRFTISRDNSRNTLYLHMNGLRPEDTAVYYCAKEAYGSGSPCDYWGQGTLVTVSS
VL: EIVLTQSPGTLSLSPGERATLSCRASQRVSSNYLAWYQQKPGQAPRLLIYGASSRATGIPDRFSGSGSGTDFTLTISRLEPEDFAVYYCQQYGTSPRSFGRGTKLEIK
B11: antibody C9P1 (antibody, V domains shown)
VH: EVQLLESGGGLVQPGGSLRLSCVTSGFTFSSYSMTWVRQAPGKGLEWVSYISSSSRTISYADSVQGRFTISRDNAKNVLYLQMNSLRAEDTAVYYCARQAVAHFDYWGQGTLVTVSS
VL: B10 VL with R101Q, L105V
B12: antibody B8P7 (antibody, V domains shown)
VH: QVQLQESGPGLVRPSETLSLTCTVSGGSISPYYWNWIRQPPGKGLEWIGYIYYSGNTKYNPSLKSRVTISVDTSKNQFSLKLSSVSAADTAVYYCARDSCSGTCYLGDNWFDPWGQGTLVTVSS
VL: QSVLTQPPSVSGAPGQRVTISCTGSSSNIGANNDVHWYQHLPGTAPKLLIYGNNHRPSGVPDRFSGSKSGTSASLAITGLQAEDEADYYCQSYDSSLSTSKVFGGGTKLTVL
B13: antibody G6P7 (antibody, V domains shown)
VH: B12 VH
VL: B12 VL with S9P
B14: antibody C4P6 (antibody, V domains shown)
VH: B12 VH with D108G
VL: B12 VL
B15: antibody F3P6 (antibody, V domains shown)
VH: QVQLVQSGAEVKKPGASVKVSCKASGYTFTTHIIHWVRQAPGQRLEWMGWINAGNGNTHYSEKFQGRVTLTRDTSASTAYMELSSLRSEDTAIYYCAREDQWLGRSPLEYWGQGTLVTVSS
VL: EIVLTQSPGTLSLSPGERATLSCRASQSVSSSYLAWYQHKPGQAPRLLIYGASSRATGIPDRFSGSGSGTDFTLTISRLEPEDFAVYYCQQYGNSYPWTFGQGTKVEIK
B16: antibody G5P6 (antibody, V domains shown)
VH: B15 VH with H59K
VL: B15 VL with I76V
B17: antibody B5P4 (antibody, V domains shown)
VH: QVQLVQSGAEVKKPGSSVKVSCKASGGRFSRYGSSWVRQAPGQGLEWMGGIIPLLGTANYAQKFQDRVSITADESTSTVYMHLSSLRSEDTAVYYCATARREYDRPGAEYFIQWGQGTLVTVSS
VL: EIVMTQSPATLSVSPGERATLSCRASQSVSTNLAWYQQKPGQAPRLLIYDAFLRATGIPARFSGSGSGTEFTLTISSLQPEDFAVYYCQQYNYWPPLTFGGGTKVEIK

biological target: VP1 capsid protein on BKV pseudovirions of genotype Ia (BK-D; JF894228) (BK virus genotype Ia (BK-D)); test: cell-based or functional assay

Binder | Neutralization PSV IC50
B1 | 12.5 µg/mL
B2 | 0.104 µg/mL
B3 | 6.44 µg/mL
B4 | > 50 µg/mL
B5 | 0.351 µg/mL
B6 | > 50 µg/mL
B7 | 0.538 µg/mL
B8 | 0.0719 µg/mL
B9 | > 50 µg/mL
B10 | > 50 µg/mL
B11 | > 50 µg/mL
B12 | 0.0019 µg/mL
B13 | 0.0038 µg/mL
B14 | 0.32 µg/mL
B15 | 0.363 µg/mL
B16 | 0.299 µg/mL
B17 | > 3.12 µg/mL

biological target: VP1 capsid protein on BKV pseudovirions of genotype II (GBR-12; AB263920) (BK virus genotype II (GBR-12)); test: cell-based or functional assay

Binder | Neutralization PSV IC50
B1 | 0.0007 µg/mL
B2 | 0.0002 µg/mL
B3 | 0.0058 µg/mL
B4 | 21.3 µg/mL
B5 | 0.0015 µg/mL
B6 | > 50 µg/mL
B7 | 0.0016 µg/mL
B8 | 0.0002 µg/mL
B9 | > 50 µg/mL
B10 | > 50 µg/mL
B11 | > 50 µg/mL
B12 | 0.0004 µg/mL
B13 | 0.0041 µg/mL
B14 | 0.103 µg/mL
B15 | 0.0062 µg/mL
B16 | 0.0082 µg/mL
B17 | > 50 µg/mL

biological target: VP1 capsid protein on BKV pseudovirions of genotype IVc2 (A-66H; AB369093) (BK virus genotype IVc2 (A-66H)); test: cell-based or functional assay

Binder | Neutralization PSV IC50
B1 | 0.0036 µg/mL
B2 | 0.0053 µg/mL
B3 | 0.0582 µg/mL
B4 | > 50 µg/mL
B5 | 0.0942 µg/mL
B6 | > 50 µg/mL
B7 | 0.108 µg/mL
B8 | 0.0056 µg/mL
B9 | > 50 µg/mL
B10 | > 50 µg/mL
B11 | > 50 µg/mL
B12 | 0.164 µg/mL
B13 | 0.883 µg/mL
B14 | 0.726 µg/mL
B15 | 0.262 µg/mL
B16 | 0.0889 µg/mL
B17 | > 50 µg/mL

biological target: T1, VP1 pentamer of BKV genotype II (recombinant) (BK virus genotype II, UniProt P14996 30-300); test: ELISA, coated VP1 pentamer
T1 construct: also called GII; VP1 geno II pentamer; not shown: N-terminal His-tag of pESPRIT002; C-terminal biotin acceptor peptide (BAP) of pESPRIT002

Binder | EC50 | binding result
B1 | 0.06 µg/mL | –
B2 | 0.55 µg/mL | –
B3 | 0.08 µg/mL | –
B4 | 25 µg/mL | –
B5 | 0.045 µg/mL | –
B6 | 5 µg/mL | –
B7 | 0.07 µg/mL | –
B8 | 0.055 µg/mL | –
B9 | 0.14 µg/mL | –
B10 | 6 µg/mL | –
B11 | – | no binding (tested: starting at 50 µg/mL)
B12 | 0.04 µg/mL | –
B13 | 0.2 µg/mL | –
B14 | 2.5 µg/mL | –
B15 | 0.15 µg/mL | –
B16 | 0.28 µg/mL | –
B17 | – | no binding (tested: starting at 50 µg/mL)

biological target: T2, VP1 pentamer of BKV genotype IV (recombinant) (BK virus genotype IV, UniProt P14996 30-300); test: ELISA, coated VP1 pentamer
T2 construct: also called GIV; VP1 BKV subtype IV; not shown: N-terminal His-tag of pESPRIT002; C-terminal biotin acceptor peptide (BAP) of pESPRIT002

Binder | EC50 | binding result
B1 | 0.04 µg/mL | –
B2 | 0.08 µg/mL | –
B3 | 0.06 µg/mL | –
B4 | 5 µg/mL | –
B5 | 0.22 µg/mL | –
B6 | 12 µg/mL | –
B7 | 2.5 µg/mL | –
B8 | 0.08 µg/mL | –
B9 | 0.6 µg/mL | –
B10 | 5 µg/mL | –
B11 | – | no binding (tested: starting at 50 µg/mL)
B12 | 3 µg/mL | –
B13 | 2.5 µg/mL | –
B14 | 2.25 µg/mL | –
B15 | 1.25 µg/mL | –
B16 | 0.7 µg/mL | –
B17 | – | no binding (tested: starting at 50 µg/mL)
